Experimental data taken from publication PMC5702613 (Nature Communications, 2017).

B1: Homo sapiens TRAF6 RZ3 (RING domain and first three zinc fingers, residues 50-211) (domain or fragment, UniProt Q9Y4K3 50-211, looked up)
chain: MEEIQGYDVEFDPPLESKYECPICLMALREAVQTPCGHRFCKACIIKSIRDAGHKCPVDNEILLENQLFPDNFAKREILSLMVKCPNEGCLHKMELRHLEDHQAHCEFALMDCPQCQRPFQKFHINIHILKDCPRRQVSCDNCAASMAFEDKEIHDQNCPLA
notes: TNF receptor-associated factor 6 (TRAF6), human, residues 50-211 (RING and ZF1-3), 20.0 kDa, in pET21d; also called HsRZ3; wild-type HsRZ3; source: E. coli BL21 (DE3), purified (HisTrap, size exclusion)
B2: Danio rerio TRAF6 RZ3 (residues 50-213) (domain or fragment, UniProt Q6IWL4 50-213, looked up)
chain: MPPDQQGYDVEFDPPLESKYECPICLMGLRSAVQTPCGHRFCDSCIRKSIRDTGQKCPVDNEVLLEEQLFPDNFAKREILSLTVKCSNFGCSEKMELRQLEKHLSQCRFATAPCPQCQESVPISHLDEHKSQHCLQRIMTCPDCAGSFVYAVKQNHEQFCPFAN
notes: TRAF6, Danio rerio, residues 50-213 (RING and ZF1-3), 19.7 kDa, in pET24b; also called DrRZ3; D. rerio RZ3 TRAF6; source: E. coli BL21 (DE3), purified (HisTrap, size exclusion)
B3: Ubc13 (C87K, K92T, K94Q), the E2 moiety of the Ubc13~Ub conjugate (enzyme)
chain: MAGLPRRIIKETQRLLAEPVPGIKAEPDESNARYFHVVIAGPQDSPFEGGTFKLELFLPEEYPMAAPKVRFMTKIYHPNVDKLGRIKLDILTDQWSPALQIRTVLLSIQALLSAPNPDDPLANDVAEQWKTNEAQAIETARAWTRLYAMNNI
modifications: isopeptide-linked to ubiquitin (C87K allows the stable isopeptide link)
notes: Ubc13 (also called Ube2N), E2 enzyme, with C87K, K92T and K94Q; Stands in the structures only as the Ubc13 moiety of the conjugate m4; also called Ube2N; not shown: GST, N-terminal, cleaved
B4: Danio rerio TRAF6 RZ1 (RING and ZF1, residues 50-159) (domain or fragment, UniProt Q6IWL4 50-159, looked up)
chain: MPPDQQGYDVEFDPPLESKYECPICLMGLRSAVQTPCGHRFCDSCIRKSIRDTGQKCPVDNEVLLEEQLFPDNFAKREILSLTVKCSNFGCSEKMELRQLEKHLSQCRFA
notes: TRAF6, Danio rerio, residues 50-159 (RING and ZF1), 13.7 kDa, in pET24b; also called DrRZ1; source: E. coli BL21 (DE3), purified (HisTrap, size exclusion)

How the values were obtained:
[1] = target: T1, isopeptide-linked Ubc13-ubiquitin conjugate (Ubc13 C87K, K92T, K94Q linked to wild-type ubiquitin) (UniProt P61088 1-152; P0CG48 1-76, C87K | K92T | K94Q, isopeptide-linked to ubiquitin (C87K allows the stable isopeptide link) | isopeptide-linked to Ubc13); assay: pull-down; GST-fused Uev1A on resin mixed with TRAF6, Ubc13 and Ubc13~Ub conjugates; PBS, 0.2% TWEEN 20, 1 mM DTT, 4 °C, 1 h; Coomassie-stained SDS-PAGE; conditions: both partners purified
T1 construct: Ubc13 (also called Ube2N), E2 enzyme, with C87K, K92T and K94Q; ubiquitin, wild-type, expressed untagged; Two chains joined covalently by an isopeptide bond; also called Ubc13~Ub conjugate; source: proteins from E. coli BL21 (DE3); conjugated in vitro with E1 and ATP, purified (Superdex 75); not shown: GST, N-terminal, cleaved

[2] = target: T1, isopeptide-linked Ubc13-ubiquitin …; assay: SEC; DrRZ3 and Ubc13~Ub at 250 µM, alone or mixed, Superdex 200 10/300, 20 mM Tris-HCl pH 7.5, 150 mM NaCl; fractions on 16% SDS-PAGE; conditions: both partners purified
[3] = target: T2, ubiquitin (wild-type), the ubiquitin moiety of the Ubc13~Ub conjugate (UniProt P0CG48 1-76, isopeptide-linked to Ubc13); assay: crystal structure; DrRZ3-Ubc13~Ub complex, 3.9 Å, P4(2)2(1)2; 100-200 mM Na/K tartrate, 11-15% PEG 3350, 100 mM Bis-Tris propane pH 7.5; conditions: both partners purified
T2 construct: ubiquitin, wild-type, expressed untagged; Stands in the structures only as the ubiquitin moiety of the conjugate m4; In the activity assays labelled or mutated ubiquitins (Cy3-Met-Cys-ubiquitin K63R, D77 ubiquitin) were used; source: E. coli BL21 (DE3), untagged, purified (HiTrap SP, Superdex 75)

[4] = target: the molecule itself; assay: as above
[5] = target: T2, ubiquitin (wild-type), the ubiquitin …; assay: crystal structure; DrRZ1-Ubc13~Ub complex, 3.4 Å, C222(1); sodium citrate, 100 mM Bis-Tris propane, 17-23% PEG 3350; conditions: both partners purified
[6] = target: B2; assay: crystal structure; DrRZ3-Ubc13~Ub complex, 3.9 Å, P4(2)2(1)2; 100-200 mM Na/K tartrate, 11-15% PEG 3350, 100 mM Bis-Tris propane pH 7.5; conditions: both partners purified
[7] = target: T1, isopeptide-linked Ubc13-ubiquitin …; assay: crystal structure; DrRZ1-Ubc13~Ub complex, 3.4 Å, C222(1); sodium citrate, 100 mM Bis-Tris propane, 17-23% PEG 3350; conditions: both partners purified
[8] = target: B3; assay: as above; conditions: both partners purified
[9] = target: the molecule itself; assay: as above

## B1
[1]
  binding result: binds

## B2
[2]
  binding result: binds
[3]
  binding result: binds
[4]
  stoichiometry N: 2

## B3
[5]
  binding result: binds
[6]
  binding result: binds

## B4
[7]
  binding result: binds
[8]
  binding result: binds
[5]
  binding result: binds
[9]
  stoichiometry N: 2
